Settings: Escherichia coli (strain K12); pH 7; 4 °C; GdnHCl; CD; PBS; whole UniProt chain shown

B1: Major outer membrane lipoprotein Lpp wild type, P69776 (protein)
chain: MKATKLVLGAVILGSTLLAGCSSNAKIDQLSSDVQTLNAKVDQLSNDVNAMRSDVQAAKDDAARANQRLDNMATKYRK
  unfolding free energy: 18.8 kcal/mol
